Data from article PMC9592637, “Functional characterization and transcriptional repression by Lacticaseibacillus paracasei DinJ-YafQ” (Applied Microbiology and Biotechnology, 2022).

B1: His-tagged DinJ (L. paracasei antitoxin DinJ, N-terminal hexa-His tag) (natural protein)
chain: MSNEKRETRLSIRIDPALKEAAQNVANDMGMDLSTAVNMFLAKIVKDHALPFTPTSLPAETLQALKEAKSSRVLKRYRTPEVMWKDLEV

Assays:
[1] = system: DinJ (Lacticaseibacillus paracasei 4366); assay: EMSA; details: KDapp, Hill n 3.7 ± 0.2; salmon sperm DNA competitor; EMSA: 2 nM DNA, 128 ng salmon sperm DNA in 10 uL, 50 mM Tris-HCl pH 7.5, 50 mM KCl, 5% glycerol, room temperature 10 min, 6% native PAGE in TBE; RNAP …
[2] = target: the molecule itself; assay: cross-linking; glutaraldehyde 0.1%, then SDS-PAGE; DinJ at 4 and 10 uM, DinJ-YafQ at 2 and 4 uM

Molecule | Kd [1] [nM] | stoichiometry N [2]
194-bp dinJ-yafQ promoter fragment | 61 | 
B1 |  | 2
